Laboratory results: patent publication US20230324389

Key:
[1] = test system: 818-C1MA
[2] = test system: 818-C1 MB
[3] = test system: 818-P1

Chain of MMP9 (chain, as listed by the source): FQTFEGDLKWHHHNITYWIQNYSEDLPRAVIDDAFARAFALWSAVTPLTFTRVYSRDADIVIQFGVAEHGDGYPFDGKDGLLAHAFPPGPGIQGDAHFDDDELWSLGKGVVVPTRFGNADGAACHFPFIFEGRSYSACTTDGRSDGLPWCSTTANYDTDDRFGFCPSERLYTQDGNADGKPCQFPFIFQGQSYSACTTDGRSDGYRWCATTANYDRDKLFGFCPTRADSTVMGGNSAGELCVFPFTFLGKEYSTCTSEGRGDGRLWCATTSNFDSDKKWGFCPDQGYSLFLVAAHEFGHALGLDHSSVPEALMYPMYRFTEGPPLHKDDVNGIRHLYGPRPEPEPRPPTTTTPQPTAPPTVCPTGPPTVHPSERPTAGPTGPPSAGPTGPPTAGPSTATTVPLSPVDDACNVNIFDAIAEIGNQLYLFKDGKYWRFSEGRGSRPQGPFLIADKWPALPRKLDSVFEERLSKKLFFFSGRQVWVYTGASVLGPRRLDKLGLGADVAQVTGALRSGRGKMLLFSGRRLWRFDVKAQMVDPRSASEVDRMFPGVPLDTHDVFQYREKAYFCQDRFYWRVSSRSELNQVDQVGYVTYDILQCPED

Substance	unmasking (protease cleavage) rate [1]	unmasking (protease cleavage) rate [2]	unmasking (protease cleavage) rate [3]	unmasking (protease cleavage) activity [1]	unmasking (protease cleavage) activity [2]	unmasking (protease cleavage) activity [3]
MMP9	MMP9: 818-P1>818-C1 MB>818-C1MA	MMP9: 818-P1>818-C1 MB>818-C1MA	MMP9: 818-P1>818-C1 MB>818-C1MA			
Urokinase-type Plasminogen Activator (uPA)				Unmasking activity attributable to uPA required higher concentrations of proteases and longer digestion times	Unmasking activity attributable to uPA required higher concentrations of proteases and longer digestion times	Unmasking activity attributable to uPA required higher concentrations of proteases and longer digestion times
